The values that follow are results of earlier work, collected in paper PMC2645924.

One may read the pKa as the negative logarithm of the acid dissociation constant.

One data set has as its target Cys32 (UniProt position 33, FWAEWCGPCKM).
A further data set deals with Cys46 (UniProt position 47, DFTFVCPTELG). The experiment in a line: chemical modification. The note with it: Reduced mutant proteins.
For the next data set, the target named is Cys165 (UniProt position 166, HPGEVCPAKWK). Nature of the data set: chemical modification. The note with it: Reduced mutant proteins.

Take Thioredoxin (Escherichia coli): the pKa in the data set with Cys32 is on record as 6.7 – 7.1.

Regarding “AhpC C165S mutant (only C46 remains) (Salmonella typhimurium; C165S)”, in the data set with Cys46, the pKa result is given as “less than 5”.

In the case of “AhpC C46S mutant (only C165 remains) (Salmonella typhimurium; C46S)”, the pKa with Cys165 is listed as 8.7.
